Measurements reported in the Immune Epitope Database (IEDB).

Assays:
HLA-A*03:01 = test: IEDB peptide-MHC binding, purified MHC/direct/fluorescence; filed as Kd, often an IC50 or EC50 that approximates it; ≥ and ≤ were set here for values at or beyond the usual limits of such assays; settings: source organism: Vibrio cholerae
HLA-A*02:02 = test: IEDB peptide-MHC binding, purified MHC/competitive/radioactivity; filed as Kd, often an IC50 or EC50 that approximates it; ≥ and ≤ were set here for values at or beyond the usual limits of such assays
HLA-A*02:03 = test: as above
HLA-A*02:06 = test: as above
HLA-A*02:01 [1] = test: IEDB peptide-MHC binding, purified MHC/competitive/fluorescence; ≥ and ≤ were set here for values at or beyond the usual limits of such assays
HLA-B*35:01 = test: IEDB peptide-MHC binding, purified MHC/competitive/radioactivity; filed as Kd, often an IC50 or EC50 that approximates it; ≥ and ≤ were set here for values at or beyond the usual limits of such assays
HLA-B*53:01 = test: as above
HLA-A*24:02 = test: IEDB peptide-MHC binding, purified MHC/competitive/fluorescence; ≥ and ≤ were set here for values at or beyond the usual limits of such assays
HLA-B*51:01 = test: IEDB peptide-MHC binding, purified MHC/competitive/radioactivity; filed as Kd, often an IC50 or EC50 that approximates it; ≥ and ≤ were set here for values at or beyond the usual limits of such assays
HLA-A*01:01 = test: IEDB peptide-MHC binding, purified MHC/direct/fluorescence; filed as Kd, often an IC50 or EC50 that approximates it; ≥ and ≤ were set here for values at or beyond the usual limits of such assays; settings: source organism: Salmonella enterica subsp. enterica serovar Typhimurium
HLA-B*40:01 = test: as above; settings: source organism: Mammarenavirus guanaritoense
HLA-A*30:02 = test: IEDB peptide-MHC binding, purified MHC/competitive/radioactivity; filed as Kd, often an IC50 or EC50 that approximates it; ≥ and ≤ were set here for values at or beyond the usual limits of such assays
HLA-B*15:01 = test: IEDB peptide-MHC binding, purified MHC/direct/fluorescence; filed as Kd, often an IC50 or EC50 that approximates it; ≥ and ≤ were set here for values at or beyond the usual limits of such assays; settings: source organism: Haemophilus influenzae
HLA-B*58:01 = test: as above; settings: source organism: Haemophilus influenzae
HLA-A*26:01 = test: IEDB peptide-MHC binding, purified MHC/competitive/fluorescence; filed as Kd, often an IC50 or EC50 that approximates it; ≥ and ≤ were set here for values at or beyond the usual limits of such assays; settings: source organism: Yersinia pestis Nepal516
HLA-A*02:01 [2] = test: as above; settings: source organism: Vaccinia virus WR
[3] = source organism: Vaccinia virus WR
[4] = source organism: Zaire ebolavirus
[5] = source organism: SARS coronavirus Tor2
[6] = source organism: Dengue virus 4 Philippines/H241/1956
[7] = source organism: Lymphocytic choriomeningitis virus (strain Armstrong)
[8] = source organism: Dengue virus 2 Jamaica/1409/1983
[9] = source organism: Sudan ebolavirus
[10] = source organism: Vaccinia virus
[11] = source organism: Mammarenavirus machupoense

Sequence	Kd (HLA-A*02:02; [3])	Kd (HLA-A*02:03; [3])	Kd (HLA-A*02:06; [3])	further results
LSARHASGK				Kd (HLA-A*03:01): 0.127 µM
LTGNNTITT	5750 nM	5.62 µM	8.68 µM	
LTSVDIETAI	509 nM	2.15 µM	3.13 µM	
LTTLATIST				IC50 (HLA-A*02:01 [1]; [4]): 7.63 µM
MAFILGIII	9530 nM	9.76 µM	≥ 32.5 µM	
MKDEPVVFS				IC50 (HLA-A*02:01 [1]; [4]): ≥ 420 µM
MLFTKFFYL				Kd (HLA-A*02:02; [5]): 0.0849 nM; Kd (HLA-A*02:03; [5]): 0.0172 µM; Kd (HLA-A*02:06; [5]): 0.00143 µM
MPTVIEELEK				Kd (HLA-B*35:01; [6]): 2.62 µM; Kd (HLA-B*53:01; [6]): 5.38 µM
MRTNFLIKF				IC50 (HLA-A*02:01 [1]; [4]): ≥ 673 µM; IC50 (HLA-A*24:02; [4]): 4.17 µM
MSCDDVVFGI				Kd (HLA-A*02:02; [7]): 1040 nM; Kd (HLA-A*02:03; [7]): 12.1 µM; Kd (HLA-A*02:06; [7]): 0.249 µM
NETEYLFEV				IC50 (HLA-A*02:01 [1]; [4]): 43.6 µM
NLAPHLLLIV				Kd (HLA-A*02:02; [5]): 5.1 nM; Kd (HLA-A*02:03; [5]): 0.00107 µM; Kd (HLA-A*02:06; [5]): 0.125 µM
NNLEEICQL				IC50 (HLA-A*02:01 [1]; [4]): ≥ 225 µM
NPTVDGITV				Kd (HLA-B*51:01; [8]): 6.3 µM
NSRHNAQHK				Kd (HLA-A*01:01): ≥ 20 µM
NTCKPTILAT	460 nM	0.248 µM	3.92 µM	
NTIAVITETI	50.2 nM	0.0563 µM	0.784 µM	
NTLISSDGA	7410 nM	3.57 µM	≥ 49.4 µM	
NYEAGEWAE				IC50 (HLA-A*24:02; [4]): 13.4 µM
NYTENTSSY				IC50 (HLA-A*24:02; [9]): 6.23 µM

Sequence	Kd (HLA-A*02:02; [3])	Kd (HLA-A*02:03; [3])	Kd (HLA-A*02:06; [3])	further results
PFARLLNLS				IC50 (HLA-A*02:01 [1]; [4]): ≥ 309 µM; IC50 (HLA-A*24:02; [4]): 15.8 µM
PFIRNPNKM				IC50 (HLA-A*24:02; [3]): 0.0658 µM
QPENLEYTI				Kd (HLA-B*53:01; source organism: Dengue virus 2 16681-PDK53): 0.028 µM
RLEELLPAV				IC50 (HLA-A*02:01 [1]; [4]): 1.85 µM
RNLNVTTQS				IC50 (HLA-A*02:01 [1]; [10]): ≥ 558 µM
RRWGGTCRI				IC50 (HLA-A*24:02; [9]): 0.708 µM
RSLETDLRS				IC50 (HLA-A*02:01 [1]; [10]): ≥ 158 µM
RTWKVLSIMA	≥ 24000 nM	6.05 µM	5.75 µM	
SAIALGVAT				IC50 (HLA-A*02:01 [1]; [4]): ≥ 242 µM
SEFCDMLRL				Kd (HLA-B*40:01): 0.0842 µM
SIGKMLESTY				Kd (HLA-A*30:02; [6]): 1.56 µM
SIMSMMNIT	4970 nM	0.681 µM	1.76 µM	
SLVITYCLVT	286 nM	0.566 µM	0.824 µM	
SQKHFDTWW				Kd (HLA-B*15:01): 0.473 µM; Kd (HLA-B*58:01): 3.04 µM
SSWAVHWFS				Kd (HLA-A*02:02; [11]): 4640 nM; Kd (HLA-A*02:03; [11]): ≥ 78.1 µM; Kd (HLA-A*02:06; [11]): ≥ 46.8 µM
STAEQLSKYV	1060 nM	1.87 µM	0.697 µM	
STDQDTMLFA	646 nM	4.7 µM	2.02 µM	
SVNASKTINA	17300 nM	0.731 µM	≥ 28.8 µM	
SWHYDQDHPY				Kd (HLA-A*30:02; [8]): ≥ 69.7 µM
SYNDYFNVL				IC50 (HLA-A*24:02; [10]): 0.0983 µM

Sequence	Kd (HLA-A*02:02; [3])	Kd (HLA-A*02:03; [3])	Kd (HLA-A*02:06; [3])	further results
TAGNKVDVDI	11000 nM	3.5 µM	≥ 38 µM	
TPKGAVMDI				Kd (HLA-B*51:01; [6]): 4.22 µM
TPQDNQLAY				Kd (HLA-B*35:01; source organism: Dengue virus 1 Brazil/97-11/1997): 0.0103 µM
TQWSLFFFV				Kd (HLA-A*02:02; [5]): 79.6 nM; Kd (HLA-A*02:03; [5]): 0.54 µM; Kd (HLA-A*02:06; [5]): 0.000812 µM
TTRGETLFY				Kd (HLA-A*26:01): 0.0341 µM
TVLTSVDIET	1720 nM	0.915 µM	0.961 µM	
VAVSFVTLI				Kd (HLA-B*51:01; [8]): 0.431 µM
VISTIANSNI	282 nM	0.845 µM	5.16 µM	
VIVENDNVI	15500 nM	19.5 µM	7.23 µM	
VPLLAMGCY				Kd (HLA-B*35:01; [6]): 0.112 µM
VPPLPLFIF				Kd (HLA-B*51:01; source organism: Dengue virus 3 Martinique/1243/1999): 3.58 µM
WIPYFGPGA				IC50 (HLA-A*02:01 [1]; [9]): 1.46 µM
WVIILFQRT				IC50 (HLA-A*24:02; [4]): ≥ 1990 µM
YALEPRKEI	3700 nM	7.07 µM	4.11 µM	
YGTLIIDEV				IC50 (HLA-A*02:01 [1]; source organism: Variola virus): 3.32 µM
YIEDELRRAA	628 nM	0.166 µM	0.204 µM	
YISRDELWA	333 nM	0.242 µM	1.2 µM	
YLYQPCDLL				Kd (HLA-A*02:01 [2]): 0.0002 µM
